The nanobody polyreactivity screen of Harvey et al. (2022)

Assay: yeast display, Sf9 membrane polyspecificity reagent, FACS + sequencing; frameworks hold sequencing errors
How it was run: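 A nanobody's polyreactivity label depends on the gate it was sorted from. Yeast display cells were stained with 10% biotinylated, detergent-solubilized Sf9 membrane reagent for 1 hour at 4 °C, enriched on streptavidin microbeads and sorted by FACS. The low and high (top ~1%) gates were set on anti-HA fluorescence for expression and streptavidin fluorescence for reagent binding.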

QVQLVESGGGLVQAGGSLRLSCAASGSIFHFYAMGWYRQAPGKERELVAAITSGTSTYYADSVKGRFTISRDNAKNTVFLQMNSLKPEDTAVYYCAAEASHYYYNAYPSYGGSDYWGQGTQVTVSS
polyreactivity (PSR sort gate): low polyreactivity

QVQLVESGGGLVQAGGSLRLSCAASGSIFHGYAMGWYRQAPGKERELVAAISKSGGRTYYADSVKGRFTISRDNAKNTVYLQMNSLKPEDTAVYYCAAPATYKYDYWGQGTQVTVSS
polyreactivity (PSR sort gate): high polyreactivity

QVQLVESGGGLVQAGGSLRLSCAASGSIFHGYAMGWYRTAPGKERELVAAISYTGGRTYYADSVKGRFTISRDNAMNTVYLQMNSLKPEDTAVYYCAAHDYWGQGTQVTVSS
polyreactivity (PSR sort gate): high polyreactivity

QVQLVESGGGLVQAGGSLRLSCAASGSIFHKNAMGWYIQAPGKERELVARITSSSGSTYYADSVKGRFTISRDNAKNTVYLQMNSLKPEDTAVYYCNASPTTTPNFWRYDYWGQGTQVTVSS
polyreactivity (PSR sort gate): high polyreactivity

QVQLVESGGGLVQAGGSLRLSCAASGSIFHLYAMGWYRQATGKERELVAAISWSGGSTYYADSVKGRFTISRDNAKNTVYLQMNSLKPEDTAVYYCAAEYYYQFYDYPYGYEYWGQGTQVTVSS
polyreactivity (PSR sort gate): high polyreactivity

QVQLVESGGGLVQAGGSLRLSCAASGSIFHPNAMGWYRQAPGKERELVAAITQSGATTYYADSVKGRFTISRDNAKNTVYLQMNSLKPEDTAVYYCAAEFTYGHHDYWGQGTQVTVSS
polyreactivity (PSR sort gate): low polyreactivity

QVQLVESGGGLVQAGGSLRLSCAASGSIFHPYAMGWSRQAPGKERELVASISKRGGSTYYADSVKGRFTISRDNAKNTVYLQMNSLKPEDTAVYYCAKLYTIGYDYWGQGTQVTVSS
polyreactivity (PSR sort gate): low polyreactivity

QVQLVESGGGLVQAGGSLRLSCAASGSIFHTYAMGWYIQAPGKERELVAAITVSGGDTYYADSVKGRFTISRDNEKNNVYLQMNSLKPEDTAVYYCAVDTTTSYTVAYDYWGQGTQVSVSS
polyreactivity (PSR sort gate): low polyreactivity

QVQLVESGGGLVQAGGSLRLSCAASGSIFHVNAMGWYRQAPGKERELVAGISDGGSTYYADSVKGRFTISRDNAKNTVYLQMNSLKPEDTAVYYCAAESEQWYSYVLSYDWEYDYWGQGTQVTVSS
polyreactivity (PSR sort gate): low polyreactivity

QVQLVESGGGLVQAGGSLRLSCAASGSIFHVNARGRYRQAPGKERELVAGISDGGSTYYADSVKGRFTISRDNAKNTVYLQMNSLKPEDTGVYYCAAESEQWYSYVLSYDWEYDYWGQGTQVTVSS
polyreactivity (PSR sort gate): low polyreactivity

QVQLVESGGGLVQAGGSLRLSCAASGSIFHYNAMGWYRQAPGKEREFVAVISKSSGSTFYADSVKGRLTISRDNAKNTVYLQMNSLKPEDTAVYYCNRVTKRYRKIGNYWGQGTQVTVSS
polyreactivity (PSR sort gate): high polyreactivity

QVQLVESGGGLVQAGGSLRLSCAASGSIFHYNAMGWYRQAPGKERELVARISVNGGRTYYADSVKGRFTISRDNAKNTVYLQMNSLKPEDTAVYYCAVEGVWRSFFYGYDSWGQGTQVTVSS
polyreactivity (PSR sort gate): low polyreactivity

QVQLVESGGGLVQAGGSLRLSCAASGSIFHYYGMGWYRQAPGKERELVAAISRGGSTNYADSVKGRFTISRDNAKNTVYLQMNSLKPEDTAVYYCNARTYRKAYSGYNYWGQGTQVTVSS
polyreactivity (PSR sort gate): high polyreactivity

QVQLVESGGGLVQAGGSLRLSCAASGSIFIAYGMGWYRQEPGKERELVAAITVSGGNTYYADSVKGRFTISRDNAKNTVYLQMKSLKPEDTAVYYCAADYWYYYGKGLYDYWGQGTQVTVSS
polyreactivity (PSR sort gate): low polyreactivity

QVQLVESGGGLVQAGGSLRLSCAASGSIFIAYGMGWYRQEPGKERELVAAITVSGGNTYYADSVKGRFTISRDNAKNTVYLQMNSLKPEDNAVYYCADVTYWQDGHRGNYWGQGTQVTVSS
polyreactivity (PSR sort gate): low polyreactivity

QVQLVESGGGLVQAGGSLRLSCAASGSIFIFNAMGWYRQAPGKEREFVARIRRDSSTYYADSVKGRFTISRDNAKNTVYLLMNSLKPEDTAVYYCAAKRVYRRVELNSWGQGTQVTVSS
polyreactivity (PSR sort gate): low polyreactivity

QVQLVESGGGLVQAGGSLRLSCAASGSIFIGYAMGWYRQAPGKERELVAAIDSNGDTTYYADSVKGRFTISRDNAKNTVYLQMNSLKPEDTAVYYCAVDPYHDQLVSDHYYWGQGTQVTVSS
polyreactivity (PSR sort gate): low polyreactivity

QVQLVESGGGLVQAGGSLRLSCAASGSIFIGYAMGWYRQAPGKERELVAAISNSGGRTYYADSVKGRFTISRDNAKNTVYLQMNSLKPEDTAVYYCAAEERYAYRYDYSGQGTQVTVSS
polyreactivity (PSR sort gate): high polyreactivity

QVQLVESGGGLVQAGGSLRLSCAASGSIFIINAMGWYRQAPGKERELVAAINNGVNTYYADSVKGRFTISRDNAKNTVYLQMNSLKPEDTAVYYCAADPYFYYYGYDYWGQGTQVTVSS
polyreactivity (PSR sort gate): low polyreactivity

QVQLVESGGGLVQAGGSLRLSCAASGSIFIIYAMGWYRQAPGKERELVAAINTSGTSTYYADSVKGRFTISRDNAKNTVYLQMNSLKPEDTAVYYCAAAGRRSYKYYFWGQGTQVTVSS
polyreactivity (PSR sort gate): high polyreactivity

QVQLVESGGGLVQAGGSLRLSCAASGSIFIIYAMGWYRQAPGKERELVASITGRGDSTYYADSVKGRFTISRDNAKNTVYLQMNSLKPEDTAVYYCNAGVYVYRVPGKGYYWGQGTQVTVSS
polyreactivity (PSR sort gate): low polyreactivity

QVQLVESGGGLVQAGGSLRLSCAASGSIFIQYAMGWYRQAPGKERELVAAINTSGGRTYYADSVKGRFTISRDNAKNTVYLLMNSLKPEDTAVYYCNADHFGWPWRVRILEDDYWGQGTQVTVSS
polyreactivity (PSR sort gate): low polyreactivity

QVQLVESGGGLVQAGGSLRLSCAASGSIFIRYTLGWYRQAPGKERELVAVISRRGGSTYYADSVKGRFTISRDNAKNTVYLQMNSLNPEDTAVYYCNTTSSVRAPGSGVYYVPGFDYWGQGTQVTVSS
polyreactivity (PSR sort gate): high polyreactivity

QVQLVESGGGLVQAGGSLRLSCAASGSIFISYAMGWYRQAPGTERELVAAITWSGDSTYYADSVKGRFTISRDNAKNTVYLQMNSLKPEDTAVYYCAADWYFRNQRGYYWGQGTQVTVSS
polyreactivity (PSR sort gate): low polyreactivity

QVQLVESGGGLVQAGGSLRLSCAASGSIFITYAMGWYRQAPGKEMELVAAIRDSGDRTYYADSVKGRFTISRDNAKNTVYLQMNSLKPVDTAVYYCNARWEEPLKYDYWGQGTQVTVSS
polyreactivity (PSR sort gate): low polyreactivity

QVQLVESGGGLVQAGGSLRLSCAASGSIFITYAMGWYRQAPGKERELVAAIRDSGDRTYYADSVKGRFTISRDNAQNTVYLQMNSLKPEDTAVYHCNARWQEPLKYDYWGQGTQVTVSS
polyreactivity (PSR sort gate): low polyreactivity

QVQLVESGGGLVQAGGSLRLSCAASGSIFIVYARGWYRPAPGRERELVATITSGGSTNYADSVKGRFTISRDNAKKTVYLQMNSLKPEDTAVYYCAKDLYYGDYYYWGLGTQVTVSS
polyreactivity (PSR sort gate): low polyreactivity

QVQLVESGGGLVQAGGSLRLSCAASGSIFIWYAMAWYRQAPWKERELVAAIRSGGSTYYADSVKGRFTISRDNAKNTVYLQMNSLKPEDTAVYYCAKVLTWRGYRYNYWGQGTQVTVSS
polyreactivity (PSR sort gate): low polyreactivity

QVQLVESGGGLVQAGGSLRLSCAASGSIFIYAMGWYRQAPGKERELVATISWSGTSTYSDSVKGRFTISRDNAKNTVYLQMNSLKPEDTAVYYCNKLKRTYYSSGYPHDYWGQGTQVTVSS
polyreactivity (PSR sort gate): low polyreactivity

QVQLVESGGGLVQAGGSLRLSCAASGSIFIYNAMGWYRQAPGKERELVAAINWTGGSTYYADSVKGRFTISRDNAKNTVYLQMNSLKPEDTAVYYCNALRYGSTRGYDYWGQGTQVTVSS
polyreactivity (PSR sort gate): high polyreactivity

QVQLVESGGGLVQAGGSLRLSCAASGSIFIYNAMGWYRQAPGKERELVAAITWSGGRTYYADSVKGRFTISRDNAKNSVYLQMNSLKPEDTAVYYCNAVWTDAYYSYGYDYWGQGTQVTVSS
polyreactivity (PSR sort gate): low polyreactivity

QVQLVESGGGLVQAGGSLRLSCAASGSIFIYYAMGGYRQEPGKERELVAAINTGGTTYYADSVKGRFTISRYNAKNTVYLQMNSLNPEDTAVYYCAKYIAYYGYVPSPWDHPGDDYWGQGTQVTVSS
polyreactivity (PSR sort gate): low polyreactivity

QVQLVESGGGLVQAGGSLRLSCAASGSIFIYYAMGWYRQAPGKEREFVAAISTSTADTYYADSVKGRFTISRDNAKNTVYLQMNSLKPEDTAVYYCAAECRPKWYYWAEGYYWGQGTQVTVSS
polyreactivity (PSR sort gate): high polyreactivity

QVQLVESGGGLVQAGGSLRLSCAASGSIFIYYAMGWYRQAPGKERELVADITFSAGSNTYYADSVKGRFTISRDNAKNTVYLQMNSLKPEDTAVYYCNADRGFIGSITEYDYWGQGTQVTVSS
polyreactivity (PSR sort gate): low polyreactivity

QVQLVESGGGLVQAGGSLRLSCAASGSIFKAHTMGWYRQAPGKERELVAAISGSGGRTRYADSVKGRFTISRDNAKITVYLQMNSLKPDVTAVYYCAASDRGGYYYWGQGTQVTVSS
polyreactivity (PSR sort gate): high polyreactivity

QVQLVESGGGLVQAGGSLRLSCAASGSIFKFNAMGWYRQAPGKERELDASITWTGTSTHYADSVKGRFTISRDNAKNTVFLQMNSLKPEDTAVYYCATYLYLWYEKGYTYDYWGQGTQVTVSS
polyreactivity (PSR sort gate): high polyreactivity

QVQLVESGGGLVQAGGSLRLSCAASGSIFKFNTMGWYRQAPGNERELVAAITRVGSTYYADSVKGRFTISRDNAKNTVYLQMNSLKPEDTAVYYCAVRQRDKFAGGRNDYWGQGTQVTVSS
polyreactivity (PSR sort gate): high polyreactivity

QVQLVESGGGLVQAGGSLRLSCAASGSIFKFYAMGWYRQAPGKERELVAAINYNDINTYYADSVKGRFTISRDNAKNTVYLQMNRLKPEDTAVYYCNAELNVQYLYGYTGEYDYWGQGTQVTVSS
polyreactivity (PSR sort gate): low polyreactivity

QVQLVESGGGLVQAGGSLRLSCAASGSIFKGYSMGWYRQAPGKERELVAAITIDGSTYYADSVKGRFTISRDNAKNTVYLQMNSLKPEDTAVYYCAAVYLWYGSWPLHFAAYDYWGQGTQVTVSS
polyreactivity (PSR sort gate): low polyreactivity

QVQLVESGGGLVQAGGSLRLSCAASGSIFKGYTMGWYRQAPGKEREFVASISRRGGSTYYADSVKGRFTISRDNAKNTVYLQMNSLKPDDTAVYYCAKDYGKAYDYWGQGTQVTVSS
polyreactivity (PSR sort gate): high polyreactivity

QVQLVESGGGLVQAGGSLRLSCAASGSIFKINAMGWYRQAPGKERELVAAITRSGGSTYYADSVKGRFTISRDNAKNTVYLQMNSLKPEDTAVYYCNASTSRRTSLSSRFYYWGQGTQVTVSS
polyreactivity (PSR sort gate): high polyreactivity

QVQLVESGGGLVQAGGSLRLSCAASGSIFKINAMGWYRQAPGKERELVATITWSTGTTYYADSVKGRFTISRDNAKNTVYLQMNSLKPEDTAVYYCATDGDSTKLDYWGQGTQVTVSS
polyreactivity (PSR sort gate): low polyreactivity

QVQLVESGGGLVQAGGSLRLSCAASGSIFKIYAMGWDRQAPGKERELVASITGSGGSTYYADSVKGRFTISRDNAKNTVYLQMNSLKPEDPAVYYCAVEAWSVPPYDYWGQGTQVTVSS
polyreactivity (PSR sort gate): low polyreactivity
